Results published in paper PMC4529168, “Molecular Cloning, Heterologous Expression, and Functional Characterization of an NADPH-Cytochrome P450 Reductase Gene from Camptotheca acuminata, a Camptothecin-Producing Plant” (PLoS ONE, 2015).

System: T1, NC(=O)C1=CN([C@@H]2O[C@H](COP(=O)(O)OP(=O)(O)OC[C@H]3O[C@@H](n4cnc5c(N)ncnc54)[C@H](OP(=O)(O)O)[C@@H]3O)[C@@H](O)[C@H]2O)C=CC1
T1 construct: N-terminal 69 residues (membrane anchor) removed, His6-tag kept (probably N-terminal, 660 residues with tag), expressed in E. coli BL21(DE3), Ni-NTA purified
Assay: purified protein
Assay type: biochemical, Camptotheca acuminata
Details: 75 μM equine heart cytochrome c, 50 mM Tris-HCl pH 7.4, 25°C

tCamCPR (Camptotheca acuminata), sequence (chain, as listed by the source): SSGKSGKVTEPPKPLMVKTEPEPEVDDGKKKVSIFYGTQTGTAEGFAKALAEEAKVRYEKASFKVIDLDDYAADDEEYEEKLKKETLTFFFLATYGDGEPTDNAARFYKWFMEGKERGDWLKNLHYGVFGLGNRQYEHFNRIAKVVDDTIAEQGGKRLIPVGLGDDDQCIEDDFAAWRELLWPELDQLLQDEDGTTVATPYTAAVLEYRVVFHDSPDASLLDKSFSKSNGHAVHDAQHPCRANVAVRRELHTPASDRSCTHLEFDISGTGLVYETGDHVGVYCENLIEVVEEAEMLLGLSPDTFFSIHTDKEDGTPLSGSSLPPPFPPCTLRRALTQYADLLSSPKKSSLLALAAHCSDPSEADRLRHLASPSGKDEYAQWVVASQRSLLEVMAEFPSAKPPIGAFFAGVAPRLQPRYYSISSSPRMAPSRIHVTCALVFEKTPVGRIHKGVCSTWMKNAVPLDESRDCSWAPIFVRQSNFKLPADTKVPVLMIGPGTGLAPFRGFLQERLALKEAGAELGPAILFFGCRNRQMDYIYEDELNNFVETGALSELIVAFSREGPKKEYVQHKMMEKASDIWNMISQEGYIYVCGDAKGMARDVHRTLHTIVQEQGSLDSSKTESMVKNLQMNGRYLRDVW

## tCamCPR (Camptotheca acuminata)
  Km: 18.7 ± 3.6 µM
